Values of other authors in publication PMC4465451.

Molecular target: His5 (UniProt position 30, DRVYIHPFHLV)
Assay: mass spectrometry
Settings: Free peptide, taken as fully solvent accessible

For Angiotensin III, the pKa is listed as 6.50.
